Assay results reported in PMC5507604, “Structure of the Neisseria Adhesin Complex Protein (ACP) and its role as a novel lysozyme inhibitor” (PLoS Pathogens, 2017).

How the values were obtained:
[1] = biological target: human lysozyme (HL) (human) (UniProt P61626)
[2] = biological target: hen egg-white lysozyme (Hewl) (hen (chicken)) (UniProt P00698)
human lysozyme (HL) = biological target: T1, human lysozyme (HL) (human, UniProt P61626 19-148, NT-647-NHS fluorescent dye (in the MST experiment only)); experiment: MST; NT-647-labelled rHL (8.3 nM) constant, 16 two-fold serial dilutions of 2.5 mM rNm-ACPI mixed 1:1; 50 mM Tris pH 7.4, 150 mM NaCl, 10 mM MgCl2, 0.05% (v/v) Tween-20; 20% and 40% MST power, LED 20%; triplicate; settings: both partners purified
T1 construct: human C-type lysozyme; MST used labelled recombinant HL; also called rHL; recombinant HL; source: bought: Sigma-Aldrich (recombinant HL, MST)
T1 sequence (looked up): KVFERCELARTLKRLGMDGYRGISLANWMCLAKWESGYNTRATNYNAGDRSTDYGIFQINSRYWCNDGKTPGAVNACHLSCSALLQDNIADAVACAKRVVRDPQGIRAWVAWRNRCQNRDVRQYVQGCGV

Sequence of hen egg-white lysozyme (Hewl) (hen (chicken)) (P00698 19-147): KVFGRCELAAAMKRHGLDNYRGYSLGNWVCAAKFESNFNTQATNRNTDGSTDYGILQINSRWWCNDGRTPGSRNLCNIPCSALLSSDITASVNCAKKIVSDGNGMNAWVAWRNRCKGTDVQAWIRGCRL

“recombinant Neisseria gonorrhoeae Adhesin Complex Protein (rNg-ACP) (natural protein)” showed a protection of M. lysodeikticus cells (1 mg/ml) against lysis by HL (2 μg/ml), OD 595 nm over 2 h and at 24 h, rNg-ACP 0-0.5 μg/ml; ~30–60% protection at 0.1 μg/ml, not protective below 0.1 μg/ml [1] of 80 to 100 % protection.

Work on “Nm-ACPI triple mutant Asn79Ala/Tyr84Ala/Gly95Ala (natural protein)” yielded an inhibition of Hewl (EnzChek assay, initial rate period) compared with wild-type Nm-ACPI (% reduced activity) [2] of 39.

B1: recombinant Neisseria meningitidis Adhesin Complex Protein Type I (rNm-ACPI) (natural protein)
chain: AGTDNPTVAKKTVSYVCQQGKKVKVTYGFNKQGLTTYASAVINGKRVQMPVNLDKSDNVETFYGKEGGYVLGTGVMDGKSYRKQPIMITAPDNQIVFKDCSPR
notes: Adhesin Complex Protein (ACP) Type I, encoded by Allele 1, N. meningitidis serogroup B strain MC58 (NMB2095/NEIS2075); mature polypeptide of 103 residues (amino acids 22-124), mass 12,306 Da with the tag; disulphide bond Cys38-Cys121; Cloned between NdeI and XhoI of pET22b(+); The same construct, 15N-labelled, was used for NMR; also called NMB2095; NEIS2075; source: E. coli BL21 (DE3) pLysS, …
B1 showed a Kd (human lysozyme (HL)) of 11 µM.
